What all share (details): both partners purified
Test [1] has as its target T1, human kallikrein-2 (hK2) (Homo sapiens, UniProt P20151).
T1 construct: human kallikrein-2 (hK2), the human protein most similar to PSA; source: bought: Innovagen AB (ELISA)
Briefly: SPR; control hK2 antigen; data not shown. For orientation: In SPR one partner is held on a chip, and binding of the other changes the refractive index at the surface.

Test [2] has as its target T2, prostate-specific antigen (PSA), uncomplexed free PSA (Homo sapiens, UniProt P07288).
T2 construct: prostate-specific antigen (PSA), human kallikrein; uncomplexed (free) form; also called fPSA; source: bought: Merck (ELISA)
Briefly: SPR; Biacore 2000; PSA immobilised on a CM4 chip by amine coupling (900-1000 RU); antibodies at 100, 50, 25, 12.5 and 10 nM in HSP-buffer flown at 30 uL/min; association 4-5 min, dissociation up to 480 min; bi-exponential fits to binding and dissociation curves; KD = Koff/Kon.

Test [3] addresses T1, human kallikrein-2 (hK2). Kind of test: ELISA; wells coated with PSA or hK2 (100 uL at 1 ug/mL) overnight; h5A10 dilution series from 5 ug/mL in four-fold steps, 1 h at RT; detected with goat anti-human-AP and pNPP, absorbance at 405 nm. Background: An ELISA detects its analyte on a solid surface through an enzyme-linked reagent.

T1 sequence (P20151 19-261): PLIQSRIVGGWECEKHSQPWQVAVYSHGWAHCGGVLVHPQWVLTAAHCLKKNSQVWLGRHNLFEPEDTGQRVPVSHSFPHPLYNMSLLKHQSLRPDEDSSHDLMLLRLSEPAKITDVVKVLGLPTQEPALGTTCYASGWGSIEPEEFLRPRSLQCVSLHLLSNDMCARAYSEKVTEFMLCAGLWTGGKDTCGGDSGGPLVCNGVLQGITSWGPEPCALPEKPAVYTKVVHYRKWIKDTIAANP
T2 sequence (P07288 25-261, one chain of several): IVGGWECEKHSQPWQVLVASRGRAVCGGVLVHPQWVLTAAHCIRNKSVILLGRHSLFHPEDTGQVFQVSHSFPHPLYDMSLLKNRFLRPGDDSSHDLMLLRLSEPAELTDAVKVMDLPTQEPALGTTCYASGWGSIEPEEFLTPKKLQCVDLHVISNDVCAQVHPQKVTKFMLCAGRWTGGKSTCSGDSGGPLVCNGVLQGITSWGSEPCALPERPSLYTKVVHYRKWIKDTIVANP

B1: humanized 5A10 conjugated with p-SCN-Bn-CHX-A''-DTPA (antibody, V domains shown)
VH: QVTLKESGPALVKPTQTLTLTCTFSGFSLSTTGMGVSWIRQPPGKALEWLAHIYWDDDKRYSTSLKTRLTISEDSSKNQVVLTMTNMDPVDTATYYCARKGYYGYFDYWGQGTLVTVSS
VL: DIQMTQSPSSLSASVGDRVTVTCRASQNVNTDVAWYQQKPGKAPKALIFSTSYLQSGVPSRFSGSGSGTDFTLTISSLQPEDFATYYCQQYSNYPLTFGQGTKVEIK
notes: as the heavy chain variable domain of m1; IgG1 heavy chain constant region, as in m1; as the light chain variable domain of m1; as the light chain constant region of m1; not described; IgG1; 111In labelling used the 3:1 conjugate, 177Lu labelling the 12:1 conjugate; also called h5A10-DTPA; DTPA-h5A10; source: HEK293 cells, transfected; purified by Protein G chromatography; conjugated with …
In the case of B1, the binding result with human kallikrein-2 (hK2) [1] is “no binding (tested: 100, 50, 25, 12.5 and 10 nM)”. In test [2], the affinity, expressed as Kd, was 12 pM; the koff – broadly, the first-order rate constant of dissociation – turned out to be 4.8e-06 s⁻¹; the kon (as a rule, a measure of how fast the partners come together) stood at 390000 M⁻¹ s⁻¹.

B2: humanized 5A10 IgG1 (antibody, V domains shown)
VH: QVTLKESGPALVKPTQTLTLTCTFSGFSLSTTGMGVSWIRQPPGKALEWLAHIYWDDDKRYSTSLKTRLTISEDSSKNQVVLTMTNMDPVDTATYYCARKGYYGYFDYWGQGTLVTVSS
VL: DIQMTQSPSSLSASVGDRVTVTCRASQNVNTDVAWYQQKPGKAPKALIFSTSYLQSGVPSRFSGSGSGTDFTLTISSLQPEDFATYYCQQYSNYPLTFGQGTKVEIK
notes: heavy chain variable domain of h5A10; IgG1 heavy chain constant region; light chain variable domain of h5A10; light chain constant region; not described, only the plasmid name p5A10VlhDhK hints at human kappa; IgG1; Light chain constant region probably human kappa (surmised from the plasmid name and the Vk1 template); also called h5A10; humanized antibody h5A10; source: HEK293 cells, transfected; …
Take B2: the binding result with human kallikrein-2 (hK2) [3] is “no binding (tested: 5 µg/mL)”. Further, in test [2], the Kd (usually the free concentration of one partner at which half of the binding sites on the other are occupied at equilibrium, for simple one-to-one binding) was 7.7 pM; the koff was determined as 4.8e-06 s⁻¹; the kon came out at 620000 M⁻¹ s⁻¹.

B3: murine 5A10 monoclonal IgG1 (antibody, V domains shown)
VH: EVQLVESGPGILQPSQTLSLTCSFSGFSLSTTGMGVSWIRQPSGKGLEWLAHLYWDEDKRYNPSLKSRLTISEDSSRNQVFLKITSVGPADSATYYCARKGYYGYFDYWGQGTALTVSS
VL: DIVMTQSQKFMSTSVGDRVSVTCKASQNVNTDVAWYQQKPGQSPKALIFSTSYRSSGVPDRFTGSGSGTDFTLTITNVQSEDLAEYFCQQYSNYPLTFGAGTKVDLN
notes: heavy chain variable domain of m5A10; murine IgG1 heavy chain constant region; light chain variable domain of m5A10; light chain constant region; Murine IgG1; also called m5A10; parental murine antibody m5A10; source: provided by the University of Turku (Finland), prepared as previously described [8]
Take B3: in the test with human kallikrein-2 (hK2) [1], the binding result was “no binding (tested: 100, 50, 25, 12.5 and 10 nM)”. Moreover, in test [2], the Kd was 22 pM, the koff was 5.4e-06 s⁻¹ and the kon came out at 250000 M⁻¹ s⁻¹.

B4: murine 5A10 conjugated with p-SCN-Bn-CHX-A''-DTPA (antibody, V domains shown)
VH: EVQLVESGPGILQPSQTLSLTCSFSGFSLSTTGMGVSWIRQPSGKGLEWLAHLYWDEDKRYNPSLKSRLTISEDSSRNQVFLKITSVGPADSATYYCARKGYYGYFDYWGQGTALTVSS
VL: DIVMTQSQKFMSTSVGDRVSVTCKASQNVNTDVAWYQQKPGQSPKALIFSTSYRSSGVPDRFTGSGSGTDFTLTITNVQSEDLAEYFCQQYSNYPLTFGAGTKVDLN
notes: as the heavy chain variable domain of m2; murine IgG1 heavy chain constant region, as in m2; as the light chain variable domain of m2; as the light chain constant region of m2; Murine IgG1; also called m5A10-DTPA; DTPA-m5A10; source: provided by the University of Turku (Finland); conjugated with p-SCN-Bn-CHX-A''-DTPA and separated from free chelate on a NAP-5 column
For the molecule B4, the binding result with human kallikrein-2 (hK2) [1] is “no binding (tested: 100, 50, 25, 12.5 and 10 nM)”. Moreover, in test [2], the Kd was 23 pM, the koff came out at 6.3e-06 s⁻¹ and the kon was found to be 270000 M⁻¹ s⁻¹.

(Values after PMC8703390, “Humanization, Radiolabeling and Biodistribution Studies of an IgG1-Type Antibody Targeting Uncomplexed PSA for Theranostic Applications” (Pharmaceuticals, 2021).)
